From the supplement of paper PMC6755084

B1: minF1; a variant is named by its letters at N, in order (parent)
chain: GAGACCGCAACTGAAAAGTTGTTNNNNAANNNNGGNTNNATTTCTGCACGTAGAAGCAAAAGGC

Variants of: B1
Assay: fraction ligated after 30 min (ligated reads / total reads); higher = more ligase activity
Conditions: with F1*subA RNA substrate (template-directed ligation), 42 °C
Outline: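 Fraction ligated for every variant was calculated as the share of total reads that came from ligated RNA. Minimized ligase ribozyme variants were made from oligo-pool templates by PCR amplification, T7 transcription and gel purification. After gel separation of ligated and unligated RNAs, reverse transcription with barcoded primers and MiSeq sequencing followed. Only core bases at quality ≥30 passed filtering.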

Variant	fraction ligated
ATCGATGGGTT G34A T37G A40G	0.00135
ATCAAGTGTGA A28G	0.00275
ATCGATGTGTA	0.00271
ATCGATGTGTG	0.00543
ATGAGGATGTA A29T	0.00295
ATCGATGAGTG G34T	0.0033
ATCAATGAGTA A28G G34T	0.00248
ATCAATGGGGT G34A G35T T37G A40T	0.0016
ATCGATGGTGA	0.00498
ATCAAGGAGTA A28G G34T	0.00153
ATCAATGATGA	0.00478
ATCGTGGTTGA	0.00112
ATCGATGGGTT G34A T37G	0.00243
ATCAGGATGTG A28G A29T	0.00377
ATCAGGATGTG A29T	0.0272
ATAGGGTGTGA	0.00288
ATAGTGGATGA	0.00362
ATCGATGTTGA	0.00239
ATCAAATGGTA A28G G34T	0.00212
ATCAAATGGTA A28G G34A	0.00267
ATAGGGATGTA A29T	0.00166
ATCGATGAGTT G34T T37G	0.00178
ATCATGGGTGA	0.00433
ATCAAAATGTG A28G	0.00629

Variant	fraction ligated
ATCGAGGAGTA	0.00327
ATCGAGGAGTG	0.0042
ATCAATAGTGA A28G	0.00213
ATCAATGGGTT A28G G34T T37G	0.00191
ATCAGGATTGA A28G	0.0019
ATCGAATGTGA	0.00581
ATCATGAGTGA A28G	0.00204
ATCATATGTGA A28G	0.00411
ATCGATGGGTT G34T T37G	0.00156
ATCAATGGGTG	0.00492
ATCAATGGGTA	0.00273
ATCGAGGAGTG G34T	0.00393
ATCAAAGAGTA A28G G34T	0.00276
ATCAATGAGTT A28G G34T T37G A40G	0.000608
ATGAGATGTGA	0.00646
ATCGGGTGTGA A29T	0.00298
ATCATGATTGA A28G	0.00281
ATCAAAGATGA A28G	0.00211
ATCATGATGTG A28G	0.0138
ATCAATGTGTG A28G	0.00324
ATCAGATGTGA A28G	0.00527
ATCAGGTGTGA A28G A29T	0.00216
ATCAAGGTGTA A28G	0.00466
ATCGATTGTGA	0.00257

Variant	fraction ligated
ATCATGTGTGA	0.00648
ATCAAGGAGTA A28G	0.00255
ATCATGGTGTA A28G	0.0034
ATCAATATGTA	0.00288
ATCAATATGTG	0.00446
ATAGATGGGTT G34T T37G A40G	0.000495
ATCAAAATGTA A28G	0.0033
ATCAGGAGTGA A29T	0.00323
ATCGGGATGTG A29T	0.0354
ATCAAATGGTT A28G G35A T37G A40G	0.00174
ATCGAGGTGTA	0.00324
ATCGAGGTGTG	0.00858
ATCAATGGGTA A28G G34T	0.00241
ATCAATGGGTA A28G G34A	0.00228
ATGAGATGTGA A28T A29G	0.016
ATCATGGTGTG A28G	0.0033
ATCAAAGAGTG A28G	0.00384
ATCAAGGAGTG A28G G34T	0.00593
ATCAAAGGGTT A28G G34A T37G A40G	0.000889
ATCGATGGGTT G34A G35T T37G A40G	0.000298
ATAGATGGTGA	0.00397
ATAGGGATGTA	0.0024
ATAGGGATGTG	0.00618
ATCAAGATTGA	0.00249

Variant	fraction ligated
ATCAGGAGTGA A28G	0.0026
ATCGGATGTGA	0.00494
ATCAATATGTA A28G	0.00429
ATCAAAGGGTA A28G G34T	0.00211
ATCAAAGGGTA A28G G34A	0.00347
ATCGAGATGTA	0.00349
ATCGAGATGTG	0.0313
ATCAAAGTGTA A28G	0.00412
ATCATGGTTGA	0.0043
ATCAAATAGTT A28G G34T T37G A40G	0.0013
ATAGGATGTGA A29T	0.00303
ATAGGATGTGA A29G	0.00633
ATCAAGGAGTT A28G G34T T37G	0.00162
ATCAATGAGTG A28G G34T	0.00581
ATCAAAAGTGA A28G	0.00266
ATGAGGAGTGA A29T	0.0018
ATCAAATGGTG A28G	0.00534
ATCGAGAGTGA	0.00383
ATCAAATGGGT A28G G35A T37G A40T	0.00114
ATCAATGTTGA	0.00356
ATCGAGGAGTT G34T T37G	0.00239
ATCGTGGAGTG	0.00496
ATCGTGGAGTA	0.00217
ATCATGGAGTT G34T T37G A40G	0.00188

Variant	fraction ligated
ATAGTATGTGA	0.00386
ATCGTATGTGA	0.00154
ATCAATGATGA A28G	0.000976
ATCAGGATGTA	0.00297
ATCAGGATGTG	0.00943
ATCAGGATGTA A28G	0.00247
ATCGATGAGTA G34T	0.00167
ATCAATGGGTA A28G	0.000828
ATAGTGATGTG	0.00732
ATAGTGATGTA	0.00203
ATCAAGAGTGA	0.0037
ATCAAAGAGTT A28G G34T T37G	0.00139
ATAGATGGGTT G34T T37G	0.00071
ATCATGGTGTG	0.00925
ATCATGGTGTA	0.00395
ATCGATATGTG	0.00524
ATCGATATGTA	0.0031
ATCGTGAGTGA	0.00262
ATCAATGTGTA	0.00707
ATCAATGTGTG	0.00785
ATCAATGGGTT G34T T37G	0.00279
ATCGGGAGTGA	0.00227
ATCATGGATGA	0.00299
ATCAAGGAGTT A28G G34T T37G A40G	0.000656

Variant	fraction ligated
ATCAAATGGTA A28G	0.0012
ATGAGGATGTA	0.00328
ATGAGGATGTG	0.00619
ATCAAATGGTT A28G G34T T37G A40G	0.000795
ATCAATTGTGA A28G	0.00238
ATCAGGTGTGA	0.00443
ATAGGGATGTG A29T	0.012
ATCAAGGAGTG G34T	0.00633
ATCAAATGGTT A28G G35A T37G	0.00104
ATAGATGTTGA	0.00174
ATCAAAGAGTT A28G G34T T37G A40G	0.00143
ATAGGGAGTGA A29T	0.00713
ATAGTGGAGTT G34T T37G A40G	0.000271
ATCAATGGGTT G34T T37G A40G	0.00223
ATCAAGGATGA	0.000429
ATCGAGGTTGA	0.00313
ATCAAATGGTT A28G G34A G35T T37G	0.00118
ATAGGGAGTGA	0.00238
ATCGAGGAGTT G34T T37G A40G	0.000736
ATCAATGTTGA A28G	0.0018
ATCAAATGTGT A28G G35A T37G A40T	0.000969
ATCAATGGGTT A28G G34T T37G A40G	0.00157
ATCAAGGAGTT G34T T37G	0.00324
ATGAGGATGTG A29T	0.00971

Variant	fraction ligated
ATAGTGGAGTT G34T T37G	0.00164
ATCAGGAGTGA A28G A29T	0.0016
ATCAAATGTGA	0.00252
ATCATGAGTGA	0.00331
ATCGTGGAGTT G34T T37G	0.00145
ATCAAGATGTA	0.00295
ATCAAGATGTG	0.0129
ATCAGGTGTGA A28G	0.00256
ATCGATGGGTA G34A	0.00165
ATCGATGGGTA G34T	0.00207
ATCAAAATTGA A28G	0.00208
ATGAGGATTGA A29T	0.00582
ATCAAATAGTT A28G G34T T37G	0.00135
ATCAAATGGTG A28G G34A	0.00551
ATCAAATGGTG A28G G34T	0.0032
ATCAAAGAGTG A28G G34T	0.00562
ATCAAAGGGTT A28G G34T T37G A40G	0.000216
ATCAATGGGTA G34T	0.0029
ATCAATGGGTA G34A	0.00177
ATCGTGGTGTA	0.00478
ATCGTGGTGTG	0.00802
ATCAATGGGTT G34A G35T T37G A40G	0.00189
ATCAAATAGTA A28G	0.00232
